Source: US11155793B2, “Phytase variants YeAPPA having improved gastric protein resistance and acid resistance, and increased catalytic efficiency” (priority 2017, dated 2021)

Tests used:
[1] = system: O=P(O)(O)O[C@H]1[C@H](OP(=O)(O)O)[C@@H](OP(=O)(O)O)[C@H](OP(=O)(O)O)[C@@H](OP(=O)(O)O)[C@H]1OP(=O)(O)O; assay: purified protein, by the assay type; details: sodium phytate 0.0625-1.5 mmol/L
[2] = target: phytase YeAPPA variant YeAPPA-E230P (Glu230 into proline), SEQ ID NO.6 (Yersinia enterocolitica, UniProt D9D7K9, E230P); assay: Kinetic parameters of phytase variant YeAPPA-E230P on sodium phytate; details: YeAPPA-E230P vs wild phytase, in words
Description: According to embodiment of the present invention, the phytase variant YeAPPA-E230P with amino acid sequence as set forth in SEQ ID NO.6 is obtained by mutation at the 230th site of glutamic acid into proline for phytase with amino acid as set forth in SEQ ID NO.1.
The modified gene encoding the phytase variants were inserted into expression vector pET-22b (+), and transformed into E coli.
The effect of pepsin on the activity of the purified mutant phytase was determined by detecting the remained activity after being treated in pH 2 for 2 hours with the different concentrations of pepsin in a mass ratio to phytase ranging from 1/1000 to 1/1. […] After developing, OD is measured at 700 nm to calculate the phytase activity. 1 unit of phytase activity is determined to be the enzyme amount releasing 1 μmol of phosphate for 1 minute. The absolute value of the measured phytase activity may be calculated based on the standard curve of inorganic phosphate in dilution.

[3] = target: wild phytase YeAPPA, SEQ ID NO.1 (Yersinia enterocolitica, UniProt D9D7K9); assay: Kinetic parameters of wild phytase on sodium phytate (double reciprocal method); assay type: biochemical; details: optimal pH 5, 45° C.
[4] = target: phytase YeAPPA variant YeAPPA-E230R (Glu230 into arginine), SEQ ID NO.7 (Yersinia enterocolitica, UniProt D9D7K9, E230R); assay: Kinetic parameters of phytase variant YeAPPA-E230R on sodium phytate; details: YeAPPA-E230R vs wild phytase, in words
[5] = target: phytase YeAPPA variant YeAPPA-L162G (Leu162 into glycine), SEQ ID NO.3 (Yersinia enterocolitica, UniProt D9D7K9, L162G); assay: Kinetic parameters of phytase variant YeAPPA-L162G on sodium phytate; details: YeAPPA-L162G vs wild phytase
[6] = target: phytase YeAPPA variant YeAPPA-L162A (Leu162 into alanine), SEQ ID NO.4 (Yersinia enterocolitica, UniProt D9D7K9, L162A); assay: Kinetic parameters of phytase variant YeAPPA-L162A on sodium phytate; details: YeAPPA-L162A vs wild phytase, in words
[7] = target: phytase YeAPPA variant YeAPPA-E230G (Glu230 into glycine), SEQ ID NO.5 (Yersinia enterocolitica, UniProt D9D7K9, E230G); assay: Kinetic parameters of phytase variant YeAPPA-E230G on sodium phytate; details: YeAPPA-E230G vs wild phytase
[8] = other: YeAPPA-L162G, optimal pH 5, 45° C.
[9] = other: YeAPPA-L162A, optimal pH 5, 45° C.
[10] = other: YeAPPA-E230G, optimal pH 5, 45° C.
[11] = other: YeAPPA-E230P, optimal pH 5, 50° C.
[12] = other: YeAPPA-E230R, optimal pH 4, 45° C.

In the case of “phytase YeAPPA variant YeAPPA-L162G (Leu162 into glycine), SEQ ID NO.3 (Yersinia enterocolitica; L162G)”, the Km [1, 8] was 190 µM, the Vmax [1, 8] was 11 µmol/min/mg and the kcat [1, 8] was 8.2 s⁻¹. It also gave a kcat/Km [1, 8] of 43000 M⁻¹ s⁻¹.
Compound “phytase YeAPPA variant YeAPPA-L162A (Leu162 into alanine), SEQ ID NO.4 (Yersinia enterocolitica; L162A)” has a Km [1, 9] of 190 µM, a Vmax [1, 9] of 6.5 µmol/min/mg and a kcat [1, 9] of 5 s⁻¹. It also gave a kcat/Km [1, 9] of 27000 M⁻¹ s⁻¹.
“phytase YeAPPA variant YeAPPA-E230G (Glu230 into glycine), SEQ ID NO.5 (Yersinia enterocolitica; E230G)” showed a Km [1, 10] of 190 µM, a Vmax [1, 10] of 16 µmol/min/mg and a kcat [1, 10] of 12 s⁻¹. For the same compound, the kcat/Km [1, 10] was 64000 M⁻¹ s⁻¹.
With O=P(O)(O)O[C@H]1[C@H](OP(=O)(O)O)[C@@H](OP(=O)(O)O)[C@H](OP(=O)(O)O)[C@@H](OP(=O)(O)O)[C@H]1OP(=O)(O)O [sodium phytate] the “reaction rate, conversion rate and catalytic efficiency compared with wild phytase” value (from here on “reaction rate … compared with wild phytase”) [2] was “almost same as those of the wild phytase”, the Kcat/Km [3] was 26 S^−1 mM^−1 and the Vmax [3] was 6.4 U mg^−1. The Kcat ([3]; from theoretical molecular weight) was 4.9 S^−1, the “reaction rate … compared with wild phytase” value [4] was “almost same as those of the wild phytase” and the “Catalytic efficiency Kcat/km relative to wild phytase” value [5] was 1.7 times. For the same compound, the “reaction rate … compared with wild phytase” value [6] was “almost same as those of the wild phytase”, the “Catalytic efficiency Kcat/km relative to wild phytase” value [7] was 2.5 times and the “Conversion rate Kcat relative to wild phytase” value [7] was 2.5 times. The “Reaction rate Vmax relative to wild phytase” value [7] was 2.5 times.
For “phytase YeAPPA variant YeAPPA-E230P (Glu230 into proline), SEQ ID NO.6 (Yersinia enterocolitica; E230P)”, the Km [1, 11] was 190 µM, the Vmax [1, 11] was 6.7 µmol/min/mg and the kcat [1, 11] was 5.1 s⁻¹. It also gave a kcat/Km [1, 11] of 26000 M⁻¹ s⁻¹.
“phytase YeAPPA variant YeAPPA-E230R (Glu230 into arginine), SEQ ID NO.7 (Yersinia enterocolitica; E230R)” was tested, and the Km [1, 12] was 180 µM, the Vmax [1, 12] was 6.3 µmol/min/mg and the kcat [1, 12] was 4.8 s⁻¹. It also gave a kcat/Km [1, 12] of 26000 M⁻¹ s⁻¹.
